Test results taken from paper PMC4763255, “Diversity between mammalian tolloid proteinases: Oligomerisation and non-catalytic domains influence activity and specificity” (Scientific Reports, 2016).

Tests used:
ΔN-chordin = biological target: T1, ΔN-chordin (UniProt Q9H2X0 127-955); test: SPR; tolloid fragments immobilised on a GLC chip by amine coupling, ΔN-chordin injected as analyte at increasing concentrations; ProteOn XPR36; 10 mM HEPES, 150 mM NaCl, 2 mM CaCl2, 0.05% Tween 20, pH 7.4, 25 °C; 1:1 Langmuir model; triplicate; details: both partners purified
T1 construct: chordin, N-terminally truncated form called ΔN-chordin
T1 sequence (looked up): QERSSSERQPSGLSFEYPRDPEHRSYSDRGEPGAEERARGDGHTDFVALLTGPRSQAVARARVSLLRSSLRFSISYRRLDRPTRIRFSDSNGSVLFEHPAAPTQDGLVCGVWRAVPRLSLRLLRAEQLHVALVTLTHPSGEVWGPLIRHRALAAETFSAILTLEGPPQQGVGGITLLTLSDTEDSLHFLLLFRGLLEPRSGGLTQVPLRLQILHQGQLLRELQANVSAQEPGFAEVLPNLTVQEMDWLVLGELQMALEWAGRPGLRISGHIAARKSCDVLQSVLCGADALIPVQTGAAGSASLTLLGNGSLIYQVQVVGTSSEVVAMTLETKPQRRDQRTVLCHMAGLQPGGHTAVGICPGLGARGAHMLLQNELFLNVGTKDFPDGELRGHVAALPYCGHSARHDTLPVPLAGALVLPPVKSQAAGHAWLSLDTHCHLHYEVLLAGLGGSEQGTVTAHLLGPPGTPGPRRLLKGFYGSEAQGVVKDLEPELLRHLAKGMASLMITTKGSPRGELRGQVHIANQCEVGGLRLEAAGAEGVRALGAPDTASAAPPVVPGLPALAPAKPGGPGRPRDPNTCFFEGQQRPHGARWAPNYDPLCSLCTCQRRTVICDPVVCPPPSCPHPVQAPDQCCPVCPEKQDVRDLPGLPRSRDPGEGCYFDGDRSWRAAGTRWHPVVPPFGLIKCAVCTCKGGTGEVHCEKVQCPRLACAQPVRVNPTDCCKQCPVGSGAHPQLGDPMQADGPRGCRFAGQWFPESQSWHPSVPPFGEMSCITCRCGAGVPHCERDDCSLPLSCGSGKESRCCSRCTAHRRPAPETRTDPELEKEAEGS

[1] = biological target: the molecule itself; test: negative-stain electron microscopy, single-particle analysis; TLL-2 ~10 ug/ml in 10 mM HEPES, 500 mM NaCl, 2 mM CaCl2, pH 7.4 on carbon-coated grids, 4% uranyl acetate

B1: TLL2 CUB4-CUB5 (domain or fragment, human, UniProt Q9Y6L7 776-1005, looked up)
chain: CAHKISSVEGTLASPNWPDKYPSRRECTWNISSTAGHRVKLTFNEFEIEQHQECAYDHLEMYDGPDSLAPILGRFCGSKKPDPTVASGSSMFLRFYSDASVQRKGFQAVHSTECGGRLKAEVQTKELYSHAQFGDNNYPSEARCDWVIVAEDGYGVELTFRTFEVEEEADCGYDYMEAYDGYDSSAPRLGRFCGSGPLEEIYSAGDSLMIRFRTDDTINKKGFHARYTST
notes: mammalian tolloid like-2 (TLL-2), human; domains CUB4 and CUB5; Cloned at OPPF-UK in pOPINTTGneo; also called TLL2-C4C5; C4C5 from TLL-2
B1 showed a Kd (ΔN-chordin) of 250 ± 20 pM.

B2: human mammalian tolloid like-2 (TLL-2) (enzyme, UniProt Q9Y6L7 26-1015, looked up)
chain: ATTSRTERIWPGGVIPYVIGGNFTGSQRAIFKQAMRHWEKHTCVTFIERTDEESFIVFSYRTCGCCSYVGRRGGGPQAISIGKNCDKFGIVAHELGHVVGFWHEHTRPDRDQHVTIIRENIQPGQEYNFLKMEAGEVSSLGETYDFDSIMHYARNTFSRGVFLDTILPRQDDNGVRPTIGQRVRLSQGDIAQARKLYKCPACGETLQDTTGNFSAPGFPNGYPSYSHCVWRISVTPGEKIVLNFTSMDLFKSRLCWYDYVEVRDGYWRKAPLLGRFCGDKIPEPLVSTDSRLWVEFRSSSNILGKGFFAAYEATCGGDMNKDAGQIQSPNYPDDYRPSKECVWRITVSEGFHVGLTFQAFEIERHDSCAYDYLEVRDGPTEESALIGHFCGYEKPEDVKSSSNRLWMKFVSDGSINKAGFAANFFKEVDECSWPDHGGCEHRCVNTLGSYKCACDPGYELAADKKMCEVACGGFITKLNGTITSPGWPKEYPTNKNCVWQVVAPAQYRISLQFEVFELEGNDVCKYDFVEVRSGLSPDAKLHGRFCGSETPEVITSQSNNMRVEFKSDNTVSKRGFRAHFFSDKDECAKDNGGCQHECVNTFGSYLCRCRNGYWLHENGHDCKEAGCAHKISSVEGTLASPNWPDKYPSRRECTWNISSTAGHRVKLTFNEFEIEQHQECAYDHLEMYDGPDSLAPILGRFCGSKKPDPTVASGSSMFLRFYSDASVQRKGFQAVHSTECGGRLKAEVQTKELYSHAQFGDNNYPSEARCDWVIVAEDGYGVELTFRTFEVEEEADCGYDYMEAYDGYDSSAPRLGRFCGSGPLEEIYSAGDSLMIRFRTDDTINKKGFHARYTSTKFQDALHMKK
modifications: N-linked glycans (5 predicted from primary sequence; shift with PNGaseF)
notes: purified as a secreted protein; predicted mass of a monomer printed as 98.58 kDa; also called mTLL2; mTLL-2
In the case of B2, the “stoichiometry N” value [1] is reported as 2.

B3: TLL1 CUB4-CUB5 (domain or fragment, UniProt O43897 774-1003, looked up)
chain: CEQKIHSPSGLITSPNWPDKYPSRKECTWEISATPGHRIKLAFSEFEIEQHQECAYDHLEVFDGETEKSPILGRLCGNKIPDPLVATGNKMFVRFVSDASVQRKGFQATHSTECGGRLKAESKPRDLYSHAQFGDNNYPGQVDCEWLLVSERGSRLELSFQTFEVEEEADCGYDYVELFDGLDSTAVGLGRFCGSGPPEEIYSIGDSVLIHFHTDDTINKKGFHIRYKSI
notes: mammalian tolloid like-1 (TLL-1); domains CUB4 and CUB5; Cloned at OPPF-UK in pOPINTTGneo; also called TLL1-C4C5; C4C5 from TLL-1
B3 was tested, and the Kd (ΔN-chordin) was 56 ± 10 pM.

B4: TLL1 CUB1-CUB2-EGF1 (domain or fragment, UniProt O43897 349-615, looked up)
chain: CGETLQESNGNLSSPGFPNGYPSYTHCIWRVSVTPGEKIVLNFTTMDLYKSSLCWYDYIEVRDGYWRKSPLLGRFCGDKLPEVLTSTDSRMWIEFRSSSNWVGKGFAAVYEAICGGEIRKNEGQIQSPNYPDDYRPMKECVWKITVSESYHVGLTFQSFEIERHDNCAYDYLEVRDGTSENSPLIGRFCGYDKPEDIRSTSNTLWMKFVSDGTVNKAGFAANFFKEEDECAKPDRGGCEQRCLNTLGSYQCACEPGYELGPDRRSCE
notes: mammalian tolloid like-1 (TLL-1); domains CUB1, CUB2 and EGF1; Cloned at OPPF-UK in pOPINTTGneo; also called TLL1-C1C2E1; C1C2E1 from TLL-1
B4 was tested, and the Kd (ΔN-chordin) was 57 ± 3 pM.

B5: mTLD CUB4-CUB5 (domain or fragment, UniProt P13497 747-976, looked up)
chain: CDHKVTSTSGTITSPNWPDKYPSKKECTWAISSTPGHRVKLTFMEMDIESQPECAYDHLEVFDGRDAKAPVLGRFCGSKKPEPVLATGSRMFLRFYSDNSVQRKGFQASHATECGGQVRADVKTKDLYSHAQFGDNNYPGGVDCEWVIVAEEGYGVELVFQTFEVEEETDCGYDYMELFDGYDSTAPRLGRYCGSGPPEEVYSAGDSVLVKFHSDDTITKKGFHLRYTST
notes: mammalian tolloid (mTLD), product of the Bmp1 gene; domains CUB4 and CUB5; Cloned at OPPF-UK in pOPINTTGneo; also called mTLD-C4C5; C4C5 from mTLD
In the case of B5, the Kd (ΔN-chordin) is reported as 190 ± 20 pM.

B6: mTLD CUB1-CUB2-EGF1 (domain or fragment, UniProt P13497 322-588, looked up)
chain: CGETLQDSTGNFSSPEYPNGYSAHMHCVWRISVTPGEKIILNFTSLDLYRSRLCWYDYVEVRDGFWRKAPLRGRFCGSKLPEPIVSTDSRLWVEFRSSSNWVGKGFFAVYEAICGGDVKKDYGHIQSPNYPDDYRPSKVCIWRIQVSEGFHVGLTFQSFEIERHDSCAYDYLEVRDGHSESSTLIGRYCGYEKPDDIKSTSSRLWLKFVSDGSINKAGFAVNFFKEVDECSRPNRGGCEQRCLNTLGSYKCSCDPGYELAPDKRRCE
notes: mammalian tolloid (mTLD), product of the Bmp1 gene; domains CUB1, CUB2 and EGF1 (shared with BMP-1); Cloned at OPPF-UK in pOPINTTGneo; also called mTLD-C1C2E1; C1C2E1 from mTLD/BMP1
Work on B6 yielded a Kd (ΔN-chordin) of 278 pM.

B7: TLL2 CUB1-CUB2-EGF1 (domain or fragment, human, UniProt Q9Y6L7 351-617, looked up)
chain: CGETLQDTTGNFSAPGFPNGYPSYSHCVWRISVTPGEKIVLNFTSMDLFKSRLCWYDYVEVRDGYWRKAPLLGRFCGDKIPEPLVSTDSRLWVEFRSSSNILGKGFFAAYEATCGGDMNKDAGQIQSPNYPDDYRPSKECVWRITVSEGFHVGLTFQAFEIERHDSCAYDYLEVRDGPTEESALIGHFCGYEKPEDVKSSSNRLWMKFVSDGSINKAGFAANFFKEVDECSWPDHGGCEHRCVNTLGSYKCACDPGYELAADKKMCE
notes: mammalian tolloid like-2 (TLL-2), human; domains CUB1, CUB2 and EGF1; Cloned at OPPF-UK in pOPINTTGneo; also called TLL2-C1C2E1; C1C2E1 from TLL-2
B7 was tested, and the Kd (ΔN-chordin) was 247 ± 260 pM.
